# Ends that are not written are not given here.
# Tests used:
# Format in all cases: cell-based
# WKK6 cells = assay: Valinomycin filter disk assay on lawns of ste6 yeast (WKK6) expressing human Mdr1 constructs; conditions: 5 mM valinomycin in DMSO on filter disk
# Protocol: CADUS plasmids 1065, 1079 and 1097 as well as a URA3 control plasmid (pRS426=1019) were transformed into a ura3^−, ste6^− strain of yeast (WKK6=CY20=MATa ura3-1 leu2-3.112 his3-11.15 trp1-1 ade2-1 can1-100 ste6::HIS3, obtained from Karl Kuchler). Individual transformants were grown overnight in SD-URA media and lawns containing approximately 5×10^6 cells were poured onto YPD plates in 3 ml of YPD top agar. Sterile filter disks were placed on the plates after the top agar had solidified, and […] of DMSO or 5 mM valinomycin in DMSO were spotted onto the filter disks.
# STE3 = biological target: T1, STE3 (Saccharomyces cerevisiae, UniProt P06783); assay: Autocrine yeast (CY599/CY2012, ste2-STE3) growth on histidine-deficient medium plus aminotriazole, fus1-HIS3 readout; conditions: for ability of the peptide-encoding plasmid to confer the His phenotype on CY2012 (a-factor analogues): -His medium with 0.2 mM 3-aminotriazole, random a-factor library
# T1 construct: fragment containing the entire coding region of STE3 flanked by the two newly introduced Spe I sites; expressed in transfected cells; host or cells: S. cerevisiae CY599 / CY2012 (ste2-STE3, chromosomal replacement with Cadus 1147)
# T1 sequence (P06783 1-470): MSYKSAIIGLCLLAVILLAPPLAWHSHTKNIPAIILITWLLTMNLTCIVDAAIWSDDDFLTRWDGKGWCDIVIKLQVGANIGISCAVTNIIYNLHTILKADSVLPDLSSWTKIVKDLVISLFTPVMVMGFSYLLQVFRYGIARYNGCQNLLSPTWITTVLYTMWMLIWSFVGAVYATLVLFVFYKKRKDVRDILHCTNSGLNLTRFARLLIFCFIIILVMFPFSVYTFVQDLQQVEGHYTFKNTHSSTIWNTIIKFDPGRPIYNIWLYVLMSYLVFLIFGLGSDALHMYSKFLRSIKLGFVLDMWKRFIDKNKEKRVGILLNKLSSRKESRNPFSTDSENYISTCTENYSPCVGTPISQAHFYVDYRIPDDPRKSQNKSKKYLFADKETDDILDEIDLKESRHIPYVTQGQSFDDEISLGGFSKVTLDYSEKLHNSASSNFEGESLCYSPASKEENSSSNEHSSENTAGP
# Source text: A MATa strain designed for the expression of peptides in the context of MFA1 (i.e., using the MFA1 expression vector, Cadus 1239) has been constructed. The genotype of this strain, designated CY599, is […] mfa1 mfa2 far1-1 his3::fus1-HIS3 ste2-STE3 ura3 met1 ade1 leu2. In this strain, Cadus 1147 (see above) was used to replace STE2 with a hybrid gene in which the STE3 coding region is under the control of expression elements which normally drive the expression of STE2. As a result, the a-factor receptor replaces the α-factor receptor. The genes which encode a-factor are deleted from this strain: the far1 mutation abrogates the arrest of growth which normally follows stimulation of the pheromone response pathway; and the FUS1-HIS3 hybrid gene (integrated at the HIS3 locus) provides a selectable signal of activation of the pheromone response pathway. CY599 cells were expected to be capable of the transport of a-factor or a-factor-like peptides encoded by oligonucleotides expressed from Cadus 1239 by virtue of expression of the endogenous yeast transporter, Ste6.
# Experiments were performed to test: 1. the ability of Cadus 1239 to function as a vector for the expression of peptides encoded by synthetic oligonucleotides; 2. the suitability of the oligonucleotides, as designed, to direct the export of farnesylated, carboxymethylated peptides through the pathway normally used by a-factor; 3. the capacity of CY599 to export these peptides; and 4. the ability of CY599 to respond to those peptides that stimulate the pheromone response pathway by growing on selective media. These tests were performed using an oligonucleotide which encodes the 12 amino acid a-factor; specifically, the degenerate sequence (NNN)n in the oligo-nucleotide cloned into Cadus 1239 (see above) (with n=12) encodes the peptide component of a-factor pheromone. CY599 was transformed with the resulting plasmid (Cadus 1220), and transformants selected on uracil-deficient medium were transferred to histidine-deficient medium supplemented with a range of concentrations of aminotriazole. […] Cadus 1220 and the designed oligonucleotide are competent to direct the expression and export of a farnesylated, carboxy-methylated peptide encoded by the (NNN)n sequence of the synthetic oligonucleotide; and 2. CY599 can, in an autocrine fashion, respond to a farnesylated, carboxy-methylated peptide that stimulates its pheromone response pathway, in this case signaling initiates as a-factor binds to STE3.
# An optimized version of strain 6 (Example 2 above) was derived. This yeast strain, CY2012 (MATa ste2-STE3 far1Δ1442 mfa1::LEU2 mfa2-lacZ fus1-HIS3 tht1-1 ura3 leu2 his3 trp1 ste2), was constructed as follows. […]
# STE2 receptor = biological target: T2, STE2 receptor (Saccharomyces cerevisiae, UniProt D6VTK4); assay: Autocrine MATa yeast (CY588/CY1455) growth on histidine-deficient medium plus aminotriazole, fus1-HIS3 readout; conditions: -His medium with 1.0 mM or 2.5 mM aminotriazole
# T2 construct: endogenous in cells; host or cells: S. cerevisiae MATa CY588 / CY1455
# T2 sequence (D6VTK4 1-431): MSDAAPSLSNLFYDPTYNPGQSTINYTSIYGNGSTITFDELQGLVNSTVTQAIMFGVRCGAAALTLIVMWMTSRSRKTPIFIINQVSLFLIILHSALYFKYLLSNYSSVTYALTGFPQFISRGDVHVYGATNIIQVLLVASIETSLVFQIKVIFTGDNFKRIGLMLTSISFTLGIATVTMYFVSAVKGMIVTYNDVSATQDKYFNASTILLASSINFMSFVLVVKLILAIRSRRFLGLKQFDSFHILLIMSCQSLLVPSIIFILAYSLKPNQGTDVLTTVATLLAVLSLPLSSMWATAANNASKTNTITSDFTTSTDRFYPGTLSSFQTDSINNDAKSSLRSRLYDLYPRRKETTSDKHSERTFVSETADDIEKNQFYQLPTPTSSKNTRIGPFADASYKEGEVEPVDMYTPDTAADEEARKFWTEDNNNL
# [1] = biological target: T3, wild-type human Mdr1 protein (Homo sapiens, UniProt P08183); assay: Halo assay of a-factor transport by human Mdr1 in ste6 yeast on supersensitive MATα lawn; conditions: yeast deleted for STE6; halo size 1097>1079~1065>1019
# T3 construct: expressed in transfected cells; host or cells: S. cerevisiae WKK6 (CY20, ste6::HIS3), plasmid Cadus 1097
# T3 sequence (P08183 whole entry): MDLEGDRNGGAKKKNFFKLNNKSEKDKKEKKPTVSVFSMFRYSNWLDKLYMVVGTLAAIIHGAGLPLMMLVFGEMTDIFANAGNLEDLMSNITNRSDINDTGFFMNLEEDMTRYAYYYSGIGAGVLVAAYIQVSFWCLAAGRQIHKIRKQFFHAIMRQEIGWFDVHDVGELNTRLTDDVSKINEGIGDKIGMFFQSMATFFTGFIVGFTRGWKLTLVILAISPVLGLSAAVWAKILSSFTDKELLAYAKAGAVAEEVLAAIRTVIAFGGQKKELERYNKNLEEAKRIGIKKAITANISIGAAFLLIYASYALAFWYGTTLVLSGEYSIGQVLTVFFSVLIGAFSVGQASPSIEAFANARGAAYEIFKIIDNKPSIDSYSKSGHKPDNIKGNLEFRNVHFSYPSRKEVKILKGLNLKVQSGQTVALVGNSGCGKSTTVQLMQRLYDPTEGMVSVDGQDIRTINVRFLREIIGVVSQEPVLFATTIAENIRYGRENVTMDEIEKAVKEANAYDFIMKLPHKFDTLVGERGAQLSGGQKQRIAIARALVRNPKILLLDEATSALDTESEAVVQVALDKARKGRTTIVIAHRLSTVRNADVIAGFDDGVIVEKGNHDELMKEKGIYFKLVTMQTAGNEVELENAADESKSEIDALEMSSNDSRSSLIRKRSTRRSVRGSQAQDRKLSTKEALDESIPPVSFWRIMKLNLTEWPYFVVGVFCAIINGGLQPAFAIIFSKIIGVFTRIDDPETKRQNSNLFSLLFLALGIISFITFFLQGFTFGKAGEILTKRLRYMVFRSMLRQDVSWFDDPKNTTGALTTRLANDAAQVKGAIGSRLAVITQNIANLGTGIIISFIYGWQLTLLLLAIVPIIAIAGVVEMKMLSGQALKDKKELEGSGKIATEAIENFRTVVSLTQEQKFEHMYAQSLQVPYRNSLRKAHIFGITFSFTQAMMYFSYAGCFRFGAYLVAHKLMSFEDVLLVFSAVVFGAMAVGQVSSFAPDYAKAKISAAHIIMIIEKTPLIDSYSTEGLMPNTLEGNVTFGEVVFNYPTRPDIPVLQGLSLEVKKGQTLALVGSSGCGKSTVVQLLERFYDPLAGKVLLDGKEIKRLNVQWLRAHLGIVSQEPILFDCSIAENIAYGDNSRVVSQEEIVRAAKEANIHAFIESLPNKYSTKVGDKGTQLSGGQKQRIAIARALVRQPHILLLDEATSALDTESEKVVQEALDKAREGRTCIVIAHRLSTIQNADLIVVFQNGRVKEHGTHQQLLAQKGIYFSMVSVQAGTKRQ
# Protocol: A “halo” assay was performed by patching WKK6 cells containing the various Mdr1 constructs (1019, 1065, 1079 & 1097) onto a lawn of Matα cells which are supersensitive to a-factor (CY32=MATα leu2-3.112 trp1-289 ura3-52 his3*1 sst2*2 GAL+).
ability of the peptide-encoding plasmid to confer the His phenotype on CY2012 (a-factor analogues) (STE3),Compound,"agonist activity on the STE2 receptor, MFα-5.8 library (STE2 receptor)",further results
,CC(C)[C@@H]1NC(=O)[C@H](C)OC(=O)[C@@H](C(C)C)NC(=O)[C@@H](C(C)C)OC(=O)[C@H](C(C)C)NC(=O)[C@H](C)OC(=O)[C@@H](C(C)C)NC(=O)[C@@H](C(C)C)OC(=O)[C@H](C(C)C)NC(=O)[C@H](C)OC(=O)[C@@H](C(C)C)NC(=O)[C@@H](C(C)C)OC1=O [valinomycin],,resistance to valinomycin conferred by mutant Mdr1 (G185V) (WKK6 cells; WKK6 cells with plasmid 1079): weak resistance; resistance to valinomycin conferred by wild type Mdr1 (WKK6 cells; WKK6 cells with plasmid 1097): complete resistance
confer the His^− phenotype,FKGQVRFVVLA [SEQ ID NO:55],,
confer the His^− phenotype,LMSPSFFFLPA [SEQ ID NO:57],,
,Trp His Trp Leu Gln Leu Thr Pro Gly Gln Pro Met Tyr (WHWLQLTPGQPMY) [SEQ ID NO:47],acted as agonists,
,"Tyr Ile Ile Lys Gly Val Phe Trp Asp Pro Ala (YIIKGVFWDPA; not fully specified (C-terminus); printed as Tyr Ile Ile Lys Gly Val Phe Trp Asp Pro Ala; also: C-terminal cysteine carboxymethylated) [a-factor, yeast dodecapeptide mating pheromone with C-terminal farnesylated, carboxymethylated cysteine, reference compound]",,"transport by wild-type human Mdr1 protein [1]: can be transported; aminotriazole-resistant growth on histidine-deficient media (autocrine response, a-factor binds to STE3) (STE3; CY599 transformed with Cadus 1220, range of aminotriazole concentrations): enhanced aminotriazole-resistant growth"
,WHWLELMPGQPLY [SEQ ID NO49],acted as agonists,
,WHWMELRPGQPMY [SEQ ID NO:51],acted as agonists,
confer the His^− phenotype,YALFVHFFDIP [SEQ ID NO:53],,

# — US7235648B1, “Yeast cells engineered to produce pheromone system protein surrogates, and uses therefor” (Cadus Technologies, Inc., priority 1993, dated 2007)
